This passage reports self-cleavage results from the RNAGym collection of RNA variant scans (doi:10.7554/elife.80360).

To fix the notation:
B1: HDV Ribozyme (parent)
chain: GGCCGGCAUGGUCCCAGCCUCCUCGCUGGCGCCGGCUGGGCAACAUUCCGAGGGGACCGUCCCCUCGGUAAUGGCGAAUGGGACCCA

The variants in this data set derive from B1. The experiment in a line: self-cleavage, relative activity (ratio to wild type); higher = more cleavage; co-transcriptional.
As for G34C C84G, the self-cleavage is 0.166. Then G40U C44A, with 0.107; and A16C A56U, with 0.997.

Turning to A56G A87C, the self-cleavage amounted to 0.993. With C48A C75U, the self-cleavage is 0.339. The same measure for C66G A70U: 1.08; for C3U C86G: 0.848; for C14G C64A: 0.511. Then C58A G82A, with 0.614; and G39A G53C, with 0.383; and G38C C48A, with 0.104. Then C14A A78C, with 0.158; and U23A U72C, with 0.332; and U27A C30U, with 0.677. In the case of C14A G82A, the self-cleavage turned out to be 0.415. U47C A56C: the self-cleavage is 0.831. On to U46G C86U, for which the self-cleavage was 0.277. The same measure for C41A C85A: 0.636; for U65G G74C: 0.309; for C19G C58A: 0.0256. Regarding U27C C75U, the self-cleavage came to 0.161. The same measure for C24G U46G: 0; for G39C C85U: 0.405. The same measure for A45C G52C: 0.752.

Regarding G25A U46A, the self-cleavage was found to be 0.

With G2C U79G, the self-cleavage came out at 0. As for G1A A43C, the self-cleavage was found to be 0.0415. Regarding U12G C19A, the self-cleavage stood at 0.161. C13G C49A: the self-cleavage came to 0.123. The same measure for C33U C84G: 0.628; for C14U C33G: 0.123; for G31U G73U: 0.171.

For the variant C18U G35U, the self-cleavage was 0.0791. The same measure for G10C G38U: 0.132; for C4G A83U: 0.136; for A45G C58U: 0.906.

Turning to U27G C58G, the self-cleavage worked out at 0.95. Then C21A G82U, with 0.0297; and C3A A77U, with 0.224; and G1U G53C, with 0.283.

U47A G80C: the self-cleavage turned out to be 0.138. The same measure for C64G G73A: 0.594; for A45G C64U: 0.889. The same measure for C26G G34U: 0.525; for G40A C44U: 0.582. Then A8G G34A, with 0.095; and C21A C61A, with 0.0511. For the variant C63G A87G, the self-cleavage came out at 0.858. The same measure for A51C G52A: 1.04; for C19G C64U: 0.056. The same measure for G1A A77G: 0.237; for G40U U46A: 0.364; for G5C A78C: 0.0615. The same measure for C36U C63A: 0.534; for C30A A83C: 0.0811; for C7G G68C: 0.0504. Regarding C85G C86U, the self-cleavage was determined as 0.858. Then G34C G38U, with 0.0378. Then U12C G35A, with 0.0723; and U12C C66U, with 0.655; and C57U A70G, with 0.967. Then G11A A16G, with 0.323; and C41G G67U, with 0.48; and G6U G59U, with 0.69. As to G17A U72A, the self-cleavage came to 0.219. Then G5C G28C, with 0.208; and G35U C64A, with 0.351. The same measure for U9G C15A: 1.21; for U37G G67C: 0.229. Regarding C7G C15G, the self-cleavage was 0. Then G10A A83G, with 0.258; and A8C U9A, with 0.755.

Take C18G C44A: the self-cleavage came to 0. The same measure for U65A C86A: 1.07; for G50U U79G: 0.802. C66G G73U: the self-cleavage was 0.389. On to C15G G67U, for which the self-cleavage turned out to be 0.475. Then G40U C75U, with 0.271; and U47C G81U, with 0.443. In the case of G28A U79G, the self-cleavage worked out at 0.0489. Regarding U27C U79A, the self-cleavage was determined as 0.511. G2U: the self-cleavage was found to be 0.0584. On to A8C U27C, for which the self-cleavage was determined as 0.739. As to U46C C61U, the self-cleavage was found to be 0.796.

On to G80A, for which the self-cleavage is 0.348.

In the case of A51G U69A, the self-cleavage came out at 1.11. For G10C G59A, the self-cleavage was determined as 0.895. The same measure for C49G C57A: 1.19; for C62A U72A: 0.54. The same measure for G1U U23C: 0.665; for U47C G67U: 0.892; for C61G A77C: 0.203. Then U65C G82U, with 0.567; and A77G G81U, with 0.348. Consider C49U C66A, for which the self-cleavage worked out at 0.984. Regarding C30A A71C, the self-cleavage came to 0.345. Regarding C30A C84U, the self-cleavage amounted to 0.13.

For the variant C3A U23C, the self-cleavage was found to be 0.46. With C66G G82A, the self-cleavage was 0.369. The same measure for G38U C57A: 0.323; for G55C C84G: 0.712. On to U47A C84A, for which the self-cleavage amounted to 0.808. Then G34C A87G, with 0.089; and G40C G67A, with 0.23; and C18A U20G, with 0.249. Then C26G U60A, with 1.05; and U46G G53C, with 0.465.

On to U47A U69C, for which the self-cleavage was 0.764.

Take U20C C36A: the self-cleavage is 0. The same measure for U65A U79A: 0.727.

Take C26A G39A: the self-cleavage is 0.234. Take G25U G53U: the self-cleavage was determined as 0.145. For the variant G55A U65G, the self-cleavage was found to be 1.09. Then C22U A78U, with 0.197. Then C3U G10U, with 0.372; and C33G G73A, with 0.0308; and G6A G29A, with 0.0959. The same measure for U12A G55C: 0.201. Turning to A77U C85A, the self-cleavage was found to be 0.514. Then C7A G82C, with 0.0811; and C19A C86A, with 0.273; and U65C A71U, with 0.812. On to C21U C63U, for which the self-cleavage was 0.341. Then A16U C62G, with 0.575; and G31U G76A, with 0.369. On to C21U G52A, for which the self-cleavage was determined as 0.24. Turning to G5U U23G, the self-cleavage was found to be 0.

G38A U69G: the self-cleavage was found to be 0.166. As for G28A G55A, the self-cleavage came out at 0.153. The same measure for C44G A77G: 0.665. Then C48G G68A, with 0.723; and G38U G81U, with 0.0545. Then A51C U69C, with 0.931.

With G39C G74C, the self-cleavage was 0.166.

On to G2C G54U, for which the self-cleavage was found to be 0.0723. The same measure for G5U G68A: 0.697; for C48A C62G: 0.359; for C33G C36G: 0.128. Then U9C A78U, with 0.185.

For A71G G80U, the self-cleavage is 0.196. Then C13U G28A, with 0.128; and A70U C84U, with 0.627. Regarding U9A C61U, the self-cleavage was 0.986.

With G55A G73A, the self-cleavage stood at 0.812. As to G35C C75U, the self-cleavage is 0.0692. Then A8G A45C, with 0.332; and U23C C33A, with 0.0378; and A16U U27A, with 0.697.

For the variant G28C G50C, the self-cleavage was 0.0437. The same measure for A8G C21G: 0.0536; for U60G G81A: 0.269; for A8U G53U: 0.867. Then C3G C57G, with 0.891; and G50U U69G, with 0.95.

Regarding G34C G59C, the self-cleavage is 0.0811. Take C32G C61U: the self-cleavage turned out to be 0.026. The same measure for U12G G28A: 0; for C15A A87C: 0.654; for G38U G54A: 0.227. As for C24U C86A, the self-cleavage was 0.808. Consider C13A C84U, for which the self-cleavage came to 0.227. The same measure for C21U C66U: 0.299. On to U27C C85A, for which the self-cleavage stood at 0.978. In the case of C21U G54U, the self-cleavage stood at 0.232.

For U46A A56C, the self-cleavage is 0.802. The same measure for U72C C84U: 0.284; for G10A C61G: 0.844.
